Data published in patent US20200171163A1 (Daiichi Sankyo, published 2020).
Numbering of substitutions follows the chain as printed.

T1: human CDH6 (full-length, on cells) (human, UniProt P55285 54-790)
T1 construct: also called hCDH6; full-length hCDH6
T1 sequence: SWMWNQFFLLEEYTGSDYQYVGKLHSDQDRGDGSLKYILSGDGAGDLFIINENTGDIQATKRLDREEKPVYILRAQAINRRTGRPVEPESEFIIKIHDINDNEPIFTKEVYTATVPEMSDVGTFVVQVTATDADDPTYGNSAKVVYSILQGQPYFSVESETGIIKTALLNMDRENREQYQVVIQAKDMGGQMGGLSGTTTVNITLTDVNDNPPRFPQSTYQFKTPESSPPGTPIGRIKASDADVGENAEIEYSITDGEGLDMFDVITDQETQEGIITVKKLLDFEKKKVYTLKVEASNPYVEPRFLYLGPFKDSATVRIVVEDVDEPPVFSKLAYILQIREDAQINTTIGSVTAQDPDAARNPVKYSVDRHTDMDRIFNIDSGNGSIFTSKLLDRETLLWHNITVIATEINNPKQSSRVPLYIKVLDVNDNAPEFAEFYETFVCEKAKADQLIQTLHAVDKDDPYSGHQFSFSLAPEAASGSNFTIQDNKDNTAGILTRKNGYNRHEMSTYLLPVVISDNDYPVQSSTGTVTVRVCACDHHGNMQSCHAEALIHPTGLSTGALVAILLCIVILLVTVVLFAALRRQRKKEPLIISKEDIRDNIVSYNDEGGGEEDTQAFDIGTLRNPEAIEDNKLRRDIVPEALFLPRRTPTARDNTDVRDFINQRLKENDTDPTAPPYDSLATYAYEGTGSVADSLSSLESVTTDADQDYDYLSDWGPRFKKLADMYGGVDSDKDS

T2: cynomolgus monkey CDH6 (on cells) (cynomolgus monkey, UniProt P55285 54-790 (human entry))
T2 construct: Expressed from pcDNA3.1-cynoCDH6; also called cynoCDH6
T2 sequence: T1 sequence with Y300H, H457R, A707G

B1: rG056 antibody (antibody, V domains shown)
VH: EVQLQESGPGLVKPSQSLSLTCSVTDYSITTYFWGWIRKFPGNKMEWMGYMSYRGGTSYNPSLKSRISITRDTSKNQFFLQLNSVTTEDTATYYCARCPNYGGHSLVFDYWGQGVMVTVSS
VL: DVQMTQSPSSLAASPGESVSISCRATKSIGIYLAWYQQKPGKTFKLLIYSGSTLQSGTPSRFSGSGSGTDFTLTIRSLEPEDFGLYFCQQFYENPFTFGSGTKLEIRR
notes: Rat monoclonal purified from hybridoma; also called rat anti-CDH6 monoclonal antibody clone rG056
B2: rG019 antibody (antibody, V domains shown)
VH: QVQLQQSGAELVKPGSSVKISCKASGYTFTRNFMHWIKQQPGNGLEWIGWIYCGDGETEYNQKFNGKATLTADRSSSTAYMELSRLTSEDSAVYFCARGVYGGFAGGYFDFWGQGVMVTVSS
VL: DIQMTQSPSLLSASVGDRVTLNCKASQNIYKNLAWYQQKLGEGPKLLIYDANTLQTGIPSRFSGSGSGSDFTLTISSLQPEDVATYFCQQYYSGWAFGGVTNLELKRA
notes: Rat monoclonal purified from hybridoma; also called rat anti-CDH6 monoclonal antibody clone rG019
B3: rG055 antibody (antibody, V domains shown)
VH: EVQLQESGPGLVRPSQSLSLSCSVTDYSITSNYWGWIRRFPGNKMEWMGYITYSGYTSYNPSLQSRISITRDTSKNQFFLQLNSVTAEDTATYYCARSINHGGYSYVVDAWGPGASVTVSS
VL: DVQMTHSPSYLAASPGESVSISCKTSKNISNYLVWYQQKPGEAYKLLIYSGSTLQSGTPSRFSGSGSGTDFTLTIRSLEPEDFGLYFCQQYYEKPFTFGSGTKLEIKR
notes: Rat monoclonal purified from hybridoma; also called rat anti-CDH6 monoclonal antibody clone rG055
B4: rG061 antibody (antibody, V domains shown)
VH: EVQLQESGPGLVKPSQSLSLTCSVTGYSITTYYWGWIRKFPGNKMEWMGYISYSGRTSYNPSLKSRMSITRDASKNQFFLQLNSVTTDDTATYYCARSPINHGGYWYFDFWGPGTMVTVSS
VL: B3 VL with H6Q, T25A, S26T, N28S, V34A, L46V, F87S, F96L
notes: Rat monoclonal purified from hybridoma; also called rat anti-CDH6 monoclonal antibody clone rG061

Target: T1, human CDH6 (full-length, on cells)
Test: flow cytometry; hCDH6-transfected 293T cells (open) vs untransfected control cells (shaded); antibody 10 ng/mL; anti-rat IgG-FITC
Procedure: The human CDH6-binding activity of the rat anti-CDH6 antibody produced in Example 1)-7 was evaluated by flow cytometry. […] The cells were cultured overnight under conditions of 37° C. and 5% CO₂, and thereafter, a cell suspension was prepared. […] Thereafter, the cells were suspended by the addition of each of the 4 rat anti-CDH6 monoclonal antibodies (clone Nos: rG019, rG055, rG056 and rG061), which had been prepared in Example 1)-7, or rat IgG control (R&D Systems, Inc.) (final concentration: 10 ng/mL). The cells were left standing at 4° C. for 1 hour. The cells were washed twice with PBS supplemented with 5% FBS, and then suspended by the addition of Anti-Rat IgG (whole molecule)-FITC antibody produced in rabbit (Sigma-Aldrich Co. LLC) that had been 50-fold diluted with PBS supplemented with 5% FBS. The cells were left standing at 4° C. for 1 hour. The cells were washed twice with PBS supplemented with 5% FBS, followed by detection using a flow cytometer (FC500; Beckman Coulter, Inc.). The data was analyzed using FlowJo (Tree Star, Inc.). In the histogram of FIG. 1, the abscissa depicts FITC fluorescence intensity indicating the amount of the antibody bound, and the ordinate depicts a cell count. […] The rat IgG control binds to neither of the cells.

binding result	Binder
binds	B1
binds	B2
binds	B3
binds	B4

Target: T2, cynomolgus monkey CDH6 (on cells)
Test: Cell-ELISA and flow cytometry screening of hybridoma supernatants on transfected cells
Procedure: A coloring reaction was carried out with occasional stirring. Thereafter, 1 M HCl was added to the plate (100 μL/well) to terminate the coloring reaction, followed by measurement of the absorbance at 490 nm using a plate reader (ENVISION: PerkinElmer, Inc.).
The binding specificity to cynomolgus monkey CDH6 of an antibody produced from the human CDH6- and cynomolgus monkey CDH6-binding antibody-producing hybridomas that had been selected by Cell-ELISA in Example 1)-4 was further confirmed by flow cytometry. […] Thereafter, the cells were suspended by the addition of the culture supernatant from each hybridoma. The cells were left standing at 4° C. for 1 hour. The cells were washed twice with PBS supplemented with 5% FBS, and thereafter, the cells were suspended by the addition of Anti-Rat IgG FITC conjugate (Sigma-Aldrich Co. LLC) that had been 500-fold diluted with PBS supplemented with 5% FBS. The cells were left standing at 4° C. for 1 hour. The cells were washed twice with PBS supplemented with 5% FBS, and then re-suspended in PBS supplemented with 5% FBS and 2 μg/ml 7-aminoactinomycin D (Molecular Probes, Inc.), followed by detection using a flow cytometer (FC500; Beckman Coulter, Inc.). The data was analyzed using FlowJo (Tree Star, Inc.). After dead cells were removed from analysis by gating out 7-aminoactinomycin D-positive cells, a histogram of the FITC fluorescence intensity of live cells was generated.

binding result	Binder
binds	B1
binds	B2
binds	B3
binds	B4
